Where a SMILES comes first, the peptide text is derived from it. Bridges are numbered along the chain shown (N, C = ends). [ ]: non-standard residue; d: D form. The star is where a group is joined. DOTA(p-xylylenediamine) = O=C(O)CN1CCN(CC(=O)O)CCN(CC(=O)NCc2ccc(CN*)cc2)CCN(CC(=O)O)CC1; DOTA = O=C(O)CN1CCN(CC(=O)O)CCN(CC(=O)*)CCN(CC(=O)O)CC1; Tyr(3-Cl) = N[C@@H](Cc1ccc(O)c(Cl)c1)C(=O)O; Hyp = O=C(O)[C@@H]1C[C@@H](O)CN1
Tests used:
[1] = Plasma pharmacokinetics and metabolite profiling by reverse phase HPLC-ICP-MS after i.v. injection; type: in vivo; conditions: rats; for metabolic behavior in plasma over time (degradation of intact probe): i.v., plasma 5-60 min post injection, C18 HPLC-ICP-MS chromatograms; for relative amount of metabolites with time post injection: plasma, C18 HPLC-ICP-MS, Ga-FBP18: metabolite group C (shortest retention times), In-FBP19: all metabolites
Description: (§1) An Agilent 8800 ICP-MSMS interfaced to an Agilent 1260 HPLC was used. 20% option gas (20% O2, 80% Ar) was added to pyrolyze any carbon deposits on the cones from the HPLC mobile phase while 40% O2 was used as cell gas when conducting reverse phase analysis. HPLC method 3: C18 column (Kromasil 5 μm C18, 250 × 4.60 mm), 0.8 mL/min, mobile phase A (water, 10 mM NaOAc), mobile phase B (90% acetonitrile, 10% 10 mM NaOAc), gradient: min. 0–2: 5% B; min 12: 50% B; min 13: 95% B; min 15: 95% B; min 16: 5% B; min 18: 5% B. HPLC method 4: size exclusion chromatography (SEC) Column (Phenomenex BioSep-SEC-s2000, 300 × 7.80 mm), 1 mL/min, mobile phase TBS, isocratic, 18 min. The SEC column was standardized using a protein marker kit (Sigma-Aldrich, P/N: MWGF1000). Ga(DOTA) and In(DOTA) were used to determine the limit of detection and limit of quantification, and to generate a calibration curve for quantification using RP-separation. Calibration standards of Ga(DOTA) and In(DOTA) ranging from 10 nM to 1 μM were prepared by serial dilution from stocks. 100 μL of each standard was analyzed by direct injection onto the reverse phase HPLC-ICP-MS (HPLC method 3), and the integrals of each metal-FBP peak were recorded. An aliquot of each calibration standard was then digested 1:1 with nitric acid and incubated overnight at 37 °C before being analyzed for its metal concentration by ICP-MS. These metal concentrations were plotted against the previously recorded integrals to generate the metal-FBP calibration plots (Additional file 1: Figure S1). Limits of detection and quantification were calculated using an established method (MacDougall & Crummett [1980]).
Ga-FBP17, Ga-FBP18, In-FBP15, In-FBP19 (50–150 nmol, with concentrations determined by direct inject ICP-MS) in 0.6 mL sterile PBS were injected either individually or as a mixture of Ga-FBP17/In-FBP15 or Ga-FBP18/In-FBP19 into anesthetized rats via cannulated femoral vein, followed by saline flush. Blood (0.2 mL) was drawn at time points 5, 10, 15, 30 and 60 min post injection via cannulated femoral artery into heparin-containing tubes. Tubes were centrifuged at 2000 g for 10 min to separate the plasma. Plasma was diluted 1:1 with chelex-treated TBS and 100 μL of sample was injected onto the HPLC-ICP-MSMS, scanning for Ga and In at m/z = 69 and 115, respectively. Peaks were integrated and measured against a standard calibration curve.

[2] = Size exclusion chromatography HPLC-ICP-MS of plasma samples to detect transchelation to plasma proteins; type: in vivo; conditions: rats, i.v., SEC HPLC-ICP-MS (BioSep-SEC-s2000, TBS), compared with pure Ga-/In-transferrin standard
Description: Ga and In transferrin complexes were synthesized using a 1.3 equivalent excess of protein and purification with Zeba™ Spin Desalting Columns (ThermoFisher Scientific), to remove unchelated Ga and In. TBS buffer was prepared by mixing 150 mM NaCl, 50 mM Tris and 5 mM NaHCO3 followed by stirring over chelex overnight and subsequent filtration.
as §1, with “The SEC column was standardized using a protein marker kit (Sigma-Aldrich, P/N: MWGF1000).” left out, “Calibration standards of Ga(DOTA) and In(DOTA) ranging from 10 nM to 1 μM were prepared by serial dilution from stocks.” left out
Ga-FBP17, Ga-FBP18, In-FBP15, In-FBP19 (50–150 nmol, with concentrations determined by direct inject ICP-MS) in 0.6 mL sterile PBS were injected either individually or as a mixture of Ga-FBP17/In-FBP15 or Ga-FBP18/In-FBP19 into anesthetized rats via cannulated femoral vein, followed by saline flush. […]

Row | SMILES | half-life ([1]; rat, iv, i.v. via femoral vein, 50–150 nmol in PBS, plasma from blood drawn 5, 10, 15, 30, 60 min post injection, intact probe quantified by C18 HPLC-ICP-MS (m/z 69 Ga, 115 In), monoexponential clearance assumed, read-out: calculated half-life of the intact complex) [min] | metabolic behavior in plasma over time (degradation of intact probe) [1] | transchelation to transferrin / high molecular weight species in plasma [2] | relative amount of metabolites with time post injection [1]
1 | CC[C@H](C)[C@H](NC(=O)[C@H](Cc1c[nH]cn1)NC(=O)[C@@H]1CSSC[C@H](NC(=O)[C@H](Cc2c[nH]cn2)NC(=O)[C@H](Cc2ccccc2)NC(=O)CN2CCN(CC(=O)O)CCN(CC(=O)O)CCN(CC(=O)O)CC2)C(=O)N2C[C@H](O)C[C@H]2C(=O)N[C@@H](Cc2ccc(O)c(Cl)c2)C(=O)N[C@@H](CC(=O)O)C(=O)N[C@@H](CC(C)C)C(=O)N1)C(=O)N[C@@H](CC(C)C)C(=O)NCc1ccc(CNC(=O)CN2CCN(CC(=O)O)CCN(CC(=O)O)CCN(CC(=O)O)CC2)cc1 [Ga-FBP17] ({DOTA}-FHC[Hyp][Tyr(3-Cl)]DLCHIL-{DOTA(p-xylylenediamine)}; disulfide 3-8) | 9 | only minimal degradation over time | did not observe Ga-transferrin or other high molecular weight species | 
2 | CC[C@H](C)[C@H](NC(=O)[C@H](Cc1c[nH]c2ccccc12)NC(=O)[C@@H]1CSSC[C@H](NC(=O)[C@@H](CCC(=O)O)NC(=O)[C@H](Cc2c[nH]c3ccccc23)NC(=O)CN2CCN(CC(=O)O)CCN(CC(=O)O)CCN(CC(=O)O)CC2)C(=O)N2C[C@H](O)C[C@H]2C(=O)N[C@@H](Cc2ccc(O)c(Cl)c2)C(=O)NCC(=O)N[C@@H](CC(C)C)C(=O)N1)C(=O)N[C@@H](CCC(N)=O)C(=O)NCc1ccc(CNC(=O)CN2CCN(CC(=O)O)CCN(CC(=O)O)CCN(CC(=O)O)CC2)cc1 [Ga-FBP18] ({DOTA}-W[dE]C[Hyp][Tyr(3-Cl)]GLCWIQ-{DOTA(p-xylylenediamine)}; disulfide 3-8) |  | rapid metabolism | identified Ga-transferrin as a metabolite | increased with time post injection
3 | CC[C@H](C)[C@H](NC(=O)[C@H](Cc1c[nH]cn1)NC(=O)[C@@H]1CSSC[C@H](NC(=O)[C@H](Cc2c[nH]cn2)NC(=O)[C@H](Cc2ccccc2)NC(=O)CN2CCN(CC(=O)O)CCN(CC(=O)O)CCN(CC(=O)O)CC2)C(=O)N2C[C@H](O)C[C@H]2C(=O)N[C@@H](Cc2ccc(O)c(Cl)c2)C(=O)N[C@@H](CC(=O)O)C(=O)N[C@@H](CC(C)C)C(=O)N1)C(=O)N[C@@H](CC(C)C)C(=O)NCc1ccc(CNC(=O)CN2CCN(CC(=O)O)CCN(CC(=O)O)CCN(CC(=O)O)CC2)cc1 [In-FBP15] ({DOTA}-FHC[Hyp][Tyr(3-Cl)]DLCHIL-{DOTA(p-xylylenediamine)}; disulfide 3-8) |  | only minimal degradation over time |  | 
4 | CC[C@H](C)[C@H](NC(=O)[C@H](Cc1c[nH]c2ccccc12)NC(=O)[C@@H]1CSSC[C@H](NC(=O)[C@@H](CCC(=O)O)NC(=O)[C@H](Cc2c[nH]c3ccccc23)NC(=O)CN2CCN(CC(=O)O)CCN(CC(=O)O)CCN(CC(=O)O)CC2)C(=O)N2C[C@H](O)C[C@H]2C(=O)N[C@@H](Cc2ccc(O)c(Cl)c2)C(=O)NCC(=O)N[C@@H](CC(C)C)C(=O)N1)C(=O)N[C@@H](CCC(N)=O)C(=O)NCc1ccc(CNC(=O)CN2CCN(CC(=O)O)CCN(CC(=O)O)CCN(CC(=O)O)CC2)cc1 [In-FBP19] ({DOTA}-W[dE]C[Hyp][Tyr(3-Cl)]GLCWIQ-{DOTA(p-xylylenediamine)}; disulfide 3-8) |  | rapid metabolism | did not identify In-transferrin in the plasma samples | roughly constant with time
